Data on five molecules can be found in patent US20160264662A1 (US Dept. of Health and Human Services, published 2016).

Assay [1] has as its target T1, 293 mCMG2 (mouse, UniProt Q6DFX2).
T1 construct: expressed on human embryonic kidney 293 cells; also called mouse CMG2; mouse ANTXR2 expressed on 293 cells
In words: flow cytometry (FACS), 293 cells expressing mCMG2 against parental 293.

In assay [2] the target is T2, recombinant human TEM8 ectodomain (human, UniProt Q9H6X2 33-321).
T2 construct: also called TEM8-ED; Tumor Endothelial Marker 8
T2 sequence: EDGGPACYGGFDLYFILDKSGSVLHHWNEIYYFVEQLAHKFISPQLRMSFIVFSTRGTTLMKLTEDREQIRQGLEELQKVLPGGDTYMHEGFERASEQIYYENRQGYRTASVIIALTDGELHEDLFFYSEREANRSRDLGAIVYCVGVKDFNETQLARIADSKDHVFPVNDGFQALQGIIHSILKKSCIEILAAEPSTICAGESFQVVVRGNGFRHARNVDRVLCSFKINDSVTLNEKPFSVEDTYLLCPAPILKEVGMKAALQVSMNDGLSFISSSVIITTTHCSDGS
In words: SPR (Biacore), antibody in IgG1 format, recombinant human TEM8 ectodomain; apparent KD.

In assay [3] the target is T3, human CMG2 (hCMG2) expressed on CHO or 293 cells (human, UniProt P58335 34-489).
T3 construct: whole, on cells; also called ANTXR2
T3 sequence (P58335 34-489): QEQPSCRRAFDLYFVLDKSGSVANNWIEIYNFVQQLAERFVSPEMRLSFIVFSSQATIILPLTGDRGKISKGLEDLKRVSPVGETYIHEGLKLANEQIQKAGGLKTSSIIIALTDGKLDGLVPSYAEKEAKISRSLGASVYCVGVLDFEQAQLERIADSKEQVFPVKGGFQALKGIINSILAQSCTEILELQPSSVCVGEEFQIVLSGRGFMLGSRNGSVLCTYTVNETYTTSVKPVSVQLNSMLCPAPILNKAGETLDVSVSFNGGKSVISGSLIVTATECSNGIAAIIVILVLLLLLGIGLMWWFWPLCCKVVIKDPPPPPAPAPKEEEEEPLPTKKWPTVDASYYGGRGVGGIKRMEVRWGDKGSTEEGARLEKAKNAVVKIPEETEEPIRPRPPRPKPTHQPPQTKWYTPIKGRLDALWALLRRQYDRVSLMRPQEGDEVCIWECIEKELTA
In words: flow cytometry (FACS), CHO cells expressing hCMG2 against parental CHO.

Assay [4] has as its target recombinant TEM8 (AP-TEM8). In words: ELISA-type titration of m825-MMAE on recombinant AP-TEM8; absorbance at 450 nm against Log (ng/well).

Where a chain is given by its changes, count along the chain named.

T1 sequence (Q6DFX2 32-487 limits assumed): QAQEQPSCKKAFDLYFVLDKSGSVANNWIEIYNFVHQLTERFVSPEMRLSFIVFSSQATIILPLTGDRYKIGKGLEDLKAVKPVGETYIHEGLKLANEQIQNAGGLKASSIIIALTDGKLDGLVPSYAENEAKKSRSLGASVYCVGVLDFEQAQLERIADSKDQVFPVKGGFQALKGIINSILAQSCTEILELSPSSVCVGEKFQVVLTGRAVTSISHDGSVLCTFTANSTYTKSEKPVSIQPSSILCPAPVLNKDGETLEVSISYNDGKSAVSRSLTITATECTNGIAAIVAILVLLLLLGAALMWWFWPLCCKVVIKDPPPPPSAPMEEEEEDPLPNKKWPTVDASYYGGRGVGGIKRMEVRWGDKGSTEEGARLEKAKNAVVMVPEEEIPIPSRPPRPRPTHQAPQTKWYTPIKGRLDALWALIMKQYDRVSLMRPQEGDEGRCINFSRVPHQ

B1: m830 antibody in human IgG1 format (antibody, V domains shown)
VH: EVQLVESGGGVVQPGRSVRLSCAASGFTFSTYTMHWVRQAPGKGLEWVAIISNDGSNKYYADPVRGRFTISRDNSKNTLYLQMNSLRAEDTAVYYCVRGSSWYRGNWFDPWGQGTLVTVSS
VL: DIQMTQSPSSLSASVGDRVTIACRASQTISRYLNWYQQKPGKAPKLLIYAASSLQSGVSSRFSGSGSGTEFTLTISSLQPEDFATYFCQQTYSPPITFGQGTRLEIKR
notes: also called m830 mAb; human m830-IgG1
For the molecule B1, the binding result in assay [1] and in assay [3] was “no binding” each time. Further, in assay [2], the Kd was found to be 12 nM.

B2: m863 antibody in human IgG1 format (antibody, V domains shown)
VH: EVQLVETGAEVKKPGASVKVSCKASGYTFTGYYMHWVRQAPGQGLEWMGWINPTSGSTNYAQKFQGRVTMTRDTSISTAYMELSGLRSDDTAVYYCVRDPGSPKWLAFDPWGQGTLVTVSS
VL: B1 VL with M4L, A22T, Q27R, T28A
notes: also called m863 mAb
As to B2, the binding result in assay [1] and in assay [3] was “no binding” in each case. In addition, the Kd in assay [2] turned out to be 1.2 nM.

B3: m825-MMAE conjugate (m825 antibody in human IgG1 format conjugated to MMAE) (other)
VH: QVQLVQSGAEVKKPGTSVKVSCKVPGYTFSSYAISWVRQAPGQGLEWMGGIIPIFGTTNYAQKFQGRVTITGEESTSTVYMELSSLRSEDTAVYYCARDTDYMFDYWGQGTLVTVSS
VL: SSELTQDPVVSVALGETVSITCQGDNLRDFYASWYQQKPGQAPLLVMYGKNRRPSGIPDRFSGSTSGNTLSLTITGAQAEDEADYYCSSRDNSKHVVFGGGTKVTVL
modifications: MMAE with stretcher unit, Val-Cit peptide cleavage site and spacer, attached to thiol groups formed by partial reduction of inter-chain disulfide bonds (positions not stated)
notes: also called anti-TEM8-MMAE
Take B3: in assay [4], the “EC50 (read off the curve)” value is around 0.5 ng/well.

B4: m825 antibody in human IgG1 format (antibody, V domains shown)
VH: B3 VH
VL: B3 VL
notes: also called m825 mAb; human m825-IgG1
Consider B4, for which the Kd in assay [2] was 0.034 nM.

B5: m822 antibody in human IgG1 format (antibody, V domains shown)
VH: B3 VH with T16A, P25S, T58A, G72A, E73D, V79A
VL: B3 VL
notes: also called m822 mAb
For the molecule B5, the Kd in assay [2] was determined as 35 nM.
